# Test results: patent US20180251489A1
# Biological target: mucosa-associated lymphoid tissue lymphoma translocation protein 1 (UniProt Q9UDY8)
# Assay: enzyme inhibition assay, 100 nM MALT1
# Sequence of mucosa-associated lymphoid tissue lymphoma translocation protein 1 (Q9UDY8 340-789): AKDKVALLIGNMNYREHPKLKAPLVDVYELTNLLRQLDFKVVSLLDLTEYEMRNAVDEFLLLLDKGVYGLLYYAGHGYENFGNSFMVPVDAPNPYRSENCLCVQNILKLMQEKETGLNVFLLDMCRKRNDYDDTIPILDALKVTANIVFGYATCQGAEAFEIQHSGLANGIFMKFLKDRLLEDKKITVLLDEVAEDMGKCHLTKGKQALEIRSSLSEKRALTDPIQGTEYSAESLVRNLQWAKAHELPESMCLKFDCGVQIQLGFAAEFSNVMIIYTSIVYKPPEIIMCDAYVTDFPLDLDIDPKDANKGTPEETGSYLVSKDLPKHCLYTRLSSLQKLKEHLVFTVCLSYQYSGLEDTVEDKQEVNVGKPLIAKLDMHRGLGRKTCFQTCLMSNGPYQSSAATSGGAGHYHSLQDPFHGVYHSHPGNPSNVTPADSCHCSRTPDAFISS
row,Substance,Ki [nM]
1,4-bromo-N-((S)-1-(((S)-1-(((S)-1-fluoro-6-guanidino-2-oxohexan-3-yl)amino)-3-hydroxy-1-oxopropan-2-yl)amino)-3-methyl-1-oxobutan-2-yl)benzamide (peptide),64
2,(S)-1-((3-cyanobenzoyl)-L-valyl)-N-((S)-1-fluoro-6-guanidino-2-oxohexan-3-yl)pyrrolidine-2-carboxamide (peptide),39
3,(S)-N-((S)-1-fluoro-6-guanidino-2-oxohexan-3-yl)-1-((3-(trifluoromethoxy)benzoyl)-L-valyl)pyrrolidine-2-carboxamide (peptide),15
4,"Benzyl ((S)-1-((S)-2-(((S)-1-fluoro-6-guanidino-2-oxohexan-3-yl)carbamoyl)pyrrolidin-1-yl)-3-methyl-1-oxobutan-2-yl)carbamate 2,2,2-trifluoroacetate (peptide)",40
5,Benzyl ((S)-2-((S)-2-(((S)-1-fluoro-6-guanidino-2-oxohexan-3-yl)carbamoyl)pyrrolidin-1-yl)-2-oxo-1-(pyridin-3-yl)ethyl)carbamate (peptide),55
6,(S)-N-((S)-1-Fluoro-6-guanidino-2-oxohexan-3-yl)-1-((4-morpholinobenzoyl)-L-valyl)pyrrolidine-2-carboxamide (peptide),75
7,Benzyl ((R)-2-((S)-2-(((S)-1-fluoro-6-guanidino-2-oxohexan-3-yl)carbamoyl)pyrrolidin-1-yl)-2-oxo-1-(pyridin-3-yl)ethyl)carbamate (peptide),146
8,"Benzyl ((2S,3R)-1-((S)-2-(((S)-1-fluoro-6-guanidino-2-oxohexan-3-yl)carbamoyl)pyrrolidin-1-yl)-3-methyl-1-oxopentan-2-yl)carbamate (peptide)",30
9,Benzyl ((S)-1-((S)-2-(((S)-1-fluoro-6-guanidino-2-oxohexan-3-yl)carbamoyl)piperidin-l-yl)-3-methyl-1-oxobutan-2-yl)carbamate (peptide),40
10,(S)-1-((4-bromobenzoyl)-L-valyl)-N-((S)-1-fluoro-6-guanidino-2-oxohexan-3-yl)piperidine-2-carboxamide (peptide),79
11,(S)-1-((4-(tert-Butyl)benzoyl)-L-valyl)-N-((S)-1-fluoro-6-guanidino-2-oxohexan-3-yl)pyrrolidine-2-carboxamide (peptide),45
12,(S)-N-((S)-1-Fluoro-6-guanidino-2-oxohexan-3-yl)-1-((4-fluorobenzoyl)-L-valyl)pyrrolidine-2-carboxamide (peptide),13
13,(S)-1-((4-Bromobenzoyl)-L-valyl)-N-((S)-1-fluoro-6-guanidino-2-oxohexan-3-yl)pyrrolidine-2-carboxamide (peptide),10
14,(S)-N-((S)-1-Fluoro-6-guanidino-2-oxohexan-3-yl)-1-((3-methoxybenzoyl)-L-valyl)pyrrolidine-2-carboxamide (peptide),75
15,(S)-N-((S)-1-Fluoro-6-guanidino-2-oxohexan-3-yl)-1-((4-isopropylbenzoyl)-L-valyl)pyrrolidine-2-carboxamide (peptide),22
16,(S)-1-((4-Bromobenzoyl)-L-valyl)-N-((S)-1-fluoro-6-guanidino-2-oxohexan-3-yl)azetidine-2-carboxamide (peptide),118
17,(S)-N-((S)-1-Fluoro-6-guanidino-2-oxohexan-3-yl)-1-((3-phenylpropanoyl)-L-valyl)pyrrolidine-2-carboxamide (peptide),43
18,Benzyl ((S)-1-((S)-2-(((S)-1-fluoro-6-guanidino-2-oxohexan-3-yl)carbamoyl)-2-methylpyrrolidin-1-yl)-3-methyl-1-oxobutan-2-yl)carbamate (peptide),158
19,"(2S,4R)-1-((S)-2-(4-Bromobenzamido)-2-cyclohexylacetyl)-N-((S)-1-fluoro-6-guanidino-2-oxohexan-3-yl)-4-hydroxypyrrolidine-2-carboxamide (peptide)",34
20,"(2S,4R)-1-((4-Bromobenzoyl)-L-valyl)-4-cyano-N-((S)-1-fluoro-6-guanidino-2-oxohexan-3-yl)pyrrolidine-2-carboxamide (peptide)",28
21,"Benzyl ((S)-1-((2S,4R)-2-(((S)-1-fluoro-6-guanidino-2-oxohexan-3-yl)carbamoyl)-4-hydroxypyrrolidin-1-yl)-3-methyl-1-oxobutan-2-yl)carbamate (peptide)",53
22,N-((S)-1-((S)-2-(((S)-1-fluoro-6-guanidino-2-oxohexan-3-yl)carbamoyl)pyrrolidin-1-yl)-3-methyl-1-oxobutan-2-yl)-5-phenylthiazole-2-carboxamide (peptide),121
23,(S)-1-(((3-Chlorophenyl)carbamoyl)-L-valyl)-N-((R)-1-fluoro-6-guanidino-2-oxohexan-3-yl)pyrrolidine-2-carboxamide (peptide),557
24,(S)-N-((R)-1-Fluoro-6-guanidino-2-oxohexan-3-yl)-1-((4-fluorobenzoyl)-L-valyl)pyrrolidine-2-carboxamide (peptide),346

row,Substance,Ki [nM]
1,benzyl ((S)-1-(((S)-1-(((S)-1-fluoro-6-guanidino-2-oxohexan-3-yl)amino)-3-hydroxy-1-oxopropan-2-yl)amino)-3-methyl-1-oxobutan-2-yl)carbamate (peptide),64
2,N-((S)-1-((S)-2-(((S)-1-Fluoro-6-guanidino-2-oxohexan-3-yl)carbamoyl)pyrrolidin-1-yl)-3-methyl-1-oxobutan-2-yl)-2-morpholinothiazole-4-carboxamide (peptide),111
3,(S)-1-((S)-2-(4-Bromobenzamido)-3-(4-(trifluoromethyl)phenyl)propanoyl)-N-((S)-1-fluoro-6-guanidino-2-oxohexan-3-yl)pyrrolidine-2-carboxamide (peptide),448
4,Benzyl (1-((S)-2-(((S)-1-fluoro-6-guanidino-2-oxohexan-3-yl)carbamoyl)pyrrolidine-1-carbonyl)cyclopentyl)carbamate (peptide),1180
5,Benzyl ((S)-1-cyclohexyl-2-((S)-2-(((S)-1-fluoro-6-guanidino-2-oxohexan-3-yl)carbamoyl)pyrrolidin-1-yl)-2-oxoethyl)carbamate (peptide),44
6,3-Chlorobenzyl ((S)-1-((S)-2-(((S)-1-fluoro-6-guanidino-2-oxohexan-3-yl)carbamoyl)pyrrolidin-1-yl)-3-methyl-1-oxobutan-2-yl)carbamate (peptide),22
7,Benzyl ((S)-1-((S)-2-(((S)-1-fluoro-6-guanidino-2-oxohexan-3-yl)carbamoyl)pyrrolidin-1-yl)-4-methyl-1-oxopentan-2-yl)carbamate (peptide),93
8,(S)-1-((4-chlorobenzoyl)-L-valyl)-N-((S)-1-fluoro-6-guanidino-2-oxohexan-3-yl)pyrrolidine-2-carboxamide (peptide),67
9,Benzyl ((S)-1-((S)-2-(((S)-1-fluoro-6-guanidino-2-oxohexan-3-yl)carbamoyl)pyrrolidin-1-yl)-3-methyl-1-oxobutan-2-yl)(methyl)carbamate (peptide),808
10,(S)-1-((4-Cyanobenzoyl)-L-valyl)-N-((S)-1-fluoro-6-guanidino-2-oxohexan-3-yl)pyrrolidine-2-carboxamide (peptide),60
11,(S)-1-((4-Bromo-2-methylbenzoyl)-L-valyl)-N-((S)-1-fluoro-6-guanidino-2-oxohexan-3-yl)pyrrolidine-2-carboxamide (peptide),40
12,(S)-1-(((4-Chlorophenyl)carbamoyl)-L-valyl)-N-((S)-1-fluoro-6-guanidino-2-oxohexan-3-yl)pyrrolidine-2-carboxamide (peptide),62
13,(S)-1-((4-Bromo-2-fluorobenzoyl)-L-valyl)-N-((S)-1-fluoro-6-guanidino-2-oxohexan-3-yl)pyrrolidine-2-carboxamide (peptide),71
14,4-Bromo-N-((S)-1-(((S)-1-(((S)-1-fluoro-6-guanidino-2-oxohexan-3-yl)amino)-1-oxopropan-2-yl)amino)-3-methyl-1-oxobutan-2-yl)benzamide (peptide),38
15,N-((S)-1-((S)-2-(((S)-1-fluoro-6-guanidino-2-oxohexan-3-yl)carbamoyl)pyrrolidin-1-yl)-3-methyl-1-oxobutan-2-yl)quinoline-3-carboxamide (peptide),40
16,(S)-1-((4-Bromobenzoyl)-L-leucyl)-N-((S)-1-fluoro-6-guanidino-2-oxohexan-3-yl)pyrrolidine-2-carboxamide (peptide),182
17,2-Chlorobenzyl ((S)-1-((S)-2-(((S)-1-fluoro-6-guanidino-2-oxohexan-3-yl)carbamoyl)pyrrolidin-1-yl)-3-methyl-1-oxobutan-2-yl)carbamate (peptide),27
18,(S)-1-(Benzoyl-L-valyl)-N-((S)-1-fluoro-6-guanidino-2-oxohexan-3-yl)pyrrolidine-2-carboxamide (peptide),40
19,(S)-1-((2-(3-Bromophenyl)acetyl)-L-valyl)-N-((S)-1-fluoro-6-guanidino-2-oxohexan-3-yl)pyrrolidine-2-carboxamide (peptide),46
20,(S)-1-((4-bromo-3-fluorobenzoyl)-L-valyl)-N-((S)-1-fluoro-6-guanidino-2-oxohexan-3-yl)pyrrolidine-2-carboxamide (peptide),78
21,"Benzyl ((S)-1-((2S,4S)-2-(((S)-1-fluoro-6-guanidino-2-oxohexan-3-yl)carbamoyl)-4-hydroxypyrrolidin-1-yl)-3-methyl-1-oxobutan-2-yl)carbamate (peptide)",49
22,(S)-N-((S)-1-Fluoro-6-guanidino-2-oxohexan-3-yl)-1-((phenylcarbamoyl)-L-valyl)pyrrolidine-2-carboxamide (peptide),52
23,(S)-1-(cinnamoyl-L-valyl)-N-((S)-1-fluoro-6-guanidino-2-oxohexan-3-yl)pyrrolidine-2-carboxamide (peptide),36
